Results taken from publication PMC7881136, “Mechanism of karyopherin-β2 binding and nuclear import of ALS variants FUS(P525L) and FUS(R495X)” (Scientific Reports, 2021).

Columns and labels:
Details in all cases: both partners purified
[1] = target: T1, FUS(P525L)^PY-NLS (475–526, P525L), MBP removed (UniProt P35637 475-526, P525L); assay: crystal structure; Kapβ2ΔLoop·FUS(P525L) PY-NLS complex, 2.7 Å, space group P2(1)2(1)2, molecular replacement; crystals from 1 M succinic acid pH 7.0, 1% PEG MME2000, 20 °C
T1 construct: FUS residues 475–526 with the ALS mutation P525L; residues 507–526 modeled in the crystal structure; also called FUS(475–526, P525L); FUS PY-NLS(P525L); source: E. coli, lysed together with bacteria expressing GST-Kapβ2ΔLoop; complex purified (GSH sepharose, amylose, TEV, gel filtration); not shown: MBP, N-terminal, cleaved
T1 sequence (looked up): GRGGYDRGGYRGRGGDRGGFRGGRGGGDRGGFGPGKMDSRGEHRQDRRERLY

[2] = target: T2, Kapβ2 (untagged, GST removed) (human, UniProt Q92973-2 1-890); assay: ITC; quality control of the Kapβ2 preparations with MBP-hnRNP A1 PY-NLS; set-up not told
T2 construct: Karyopherin β2 (Kapβ2, Transportin-1, TNPO1), human; used for ITC and turbidity assays; also called Karyopherin-β2; Transportin-1; source: E. coli BL21 (DE3), purified (GSH column, Tev cleavage, anion exchange, SEC Superdex200)
T2 sequence (looked up): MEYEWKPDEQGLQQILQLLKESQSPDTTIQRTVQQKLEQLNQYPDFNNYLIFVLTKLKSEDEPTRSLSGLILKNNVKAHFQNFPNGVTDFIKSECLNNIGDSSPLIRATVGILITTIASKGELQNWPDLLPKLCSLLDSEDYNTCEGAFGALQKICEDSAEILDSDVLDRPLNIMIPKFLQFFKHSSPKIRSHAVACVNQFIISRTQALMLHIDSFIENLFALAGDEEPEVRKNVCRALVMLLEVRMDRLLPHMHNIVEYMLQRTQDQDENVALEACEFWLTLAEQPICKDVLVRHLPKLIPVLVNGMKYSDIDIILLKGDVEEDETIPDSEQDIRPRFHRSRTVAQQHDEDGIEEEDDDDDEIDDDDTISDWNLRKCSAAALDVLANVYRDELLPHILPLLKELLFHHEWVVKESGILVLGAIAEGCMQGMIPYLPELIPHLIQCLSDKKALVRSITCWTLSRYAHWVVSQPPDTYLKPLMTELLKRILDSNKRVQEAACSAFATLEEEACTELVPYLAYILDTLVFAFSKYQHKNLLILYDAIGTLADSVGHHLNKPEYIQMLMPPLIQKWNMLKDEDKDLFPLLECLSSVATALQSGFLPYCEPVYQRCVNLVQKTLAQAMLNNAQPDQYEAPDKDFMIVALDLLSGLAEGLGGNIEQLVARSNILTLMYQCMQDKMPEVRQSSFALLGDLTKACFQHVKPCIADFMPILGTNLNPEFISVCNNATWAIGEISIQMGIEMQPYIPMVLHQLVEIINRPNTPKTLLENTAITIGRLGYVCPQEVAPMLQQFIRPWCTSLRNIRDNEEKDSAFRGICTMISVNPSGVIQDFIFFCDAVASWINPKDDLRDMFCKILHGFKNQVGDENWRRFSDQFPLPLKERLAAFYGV

[3] = target: T2, Kapβ2 (untagged, GST removed); assay: ITC; reversed set-up: 10 μM MBP-FUS protein in the cell, 100 μM or 200 μM Kapβ2 in the syringe; 20 mM Tris–HCl, 150 mM NaCl, 10% glycerol, 2 mM BME; 20 °C; single class of binding sites; 'apparent' KD for FUS(1–370)

B1: Kapβ2ΔLoop (residues 337–367 replaced with a GGSGGSG linker) (natural protein, human)
chain: MEYEWKPDEQGLQQILQLLKESQSPDTTIQRTVQQKLEQLNQYPDFNNYLIFVLTKLKSEDEPTRSLSGLILKNNVKAHFQNFPNGVTDFIKSECLNNIGDSSPLIRATVGILITTIASKGELQNWPDLLPKLCSLLDSEDYNTCEGAFGALQKICEDSAEILDSDVLDRPLNIMIPKFLQFFKHSSPKIRSHAVACVNQFIISRTQALMLHIDSFIENLFALAGDEEPEVRKNVCRALVMLLEVRMDRLLPHMHNIVEYMLQRTQDQDENVALEACEFWLTLAEQPICKDVLVRHLPKLIPVLVNGMKYSDIDIILLKGDVEEDETIPDSEQDIRGGSGGSGDTISDWNLRKCSAAALDVLANVYRDELLPHILPLLKELLFHHEWVVKESGILVLGAIAEGCMQGMIPYLPELIPHLIQCLSDKKALVRSITCWTLSRYAHWVVSQPPDTYLKPLMTELLKRILDSNKRVQEAACSAFATLEEEACTELVPYLAYILDTLVFAFSKYQHKNLLILYDAIGTLADSVGHHLNKPEYIQMLMPPLIQKWNMLKDEDKDLFPLLECLSSVATALQSGFLPYCEPVYQRCVNLVQKTLAQAMLNNAQPDQYEAPDKDFMIVALDLLSGLAEGLGGNIEQLVARSNILTLMYQCMQDKMPEVRQSSFALLGDLTKACFQHVKPCIADFMPILGTNLNPEFISVCNNATWAIGEISIQMGIEMQPYIPMVLHQLVEIINRPNTPKTLLENTAITIGRLGYVCPQEVAPMLQQFIRPWCTSLRNIRDNEEKDSAFRGICTMISVNPSGVIQDFIFFCDAVASWINPKDDLRDMFCKILHGFKNQVGDENWRRFSDQFPLPLKERLAAFYGV
notes: linker that replaces residues 337–367; crystallisation construct; also called GST-Kapβ2ΔLoop; source: E. coli, lysed together with bacteria expressing MBP-FUS(475–526, P525L); complex purified (GSH sepharose, amylose, TEV, gel filtration)
B1: binds [1].

B2: MBP-hnRNP A1 PY-NLS (domain or fragment)
chain: GGSYNDFGNYNNQSSNFGPMKGGNFGGRSSGPYGGGGQYFAKPRNQGGY
modifications: Limits not printed: conventional hnRNP A1 PY-NLS (M9) construct 257-305 in the 320-aa A1-A isoform, shifted by +52 to the 372-aa canonical entry. MBP omitted.
Binder B2 has a Kd [2] of roughly 50 nM.

B3: MBP-FUS(R495X) (residues 1–494) (domain or fragment, UniProt P35637 1-494, looked up)
chain: MASNDYTQQATQSYGAYPTQPGQGYSQQSSQPYGQQSYSGYSQSTDTSGYGQSSYSSYGQSQNTGYGTQSTPQGYGSTGGYGSSQSSQSSYGQQSSYPGYGQQPAPSSTSGSYGSSSQSSSYGQPQSGSYSQQPSYGGQQQSYGQQQSYNPPQGYGQQNQYNSSSGGGGGGGGGGNYGQDQSSMSSGGGSGGGYGNQDQSGGGGSGGYGQQDRGGRGRGGSGGGGGGGGGGYNRSSGGYEPRGRGGGRGGRGGMGGSDRGGFNKFGGPRDQGSRHDSEQDNSDNNTIFVQGLGENVTIESVADYFKQIGIIKTNKKTGQPMINLYTDRETGKLKGEATVSFDDPPSAKAAIDWFDGKEFSGNPIKVSFATRRADFNRGGGNGRGGRGRGGPMGRGGYGGGGSGGGGRGGFPSGGGGGGGQQRAGDWKCPNPTCENMNFSWRNECNQCKAPKPDGPGGGPGGSHMGGNYGDDRRGGRGGYDRGGYRGRGGDRGGF
notes: source: E. coli BL21 (DE3), purified (amylose resin, SEC); not shown: MBP, N-terminal, kept
Work on B3 yielded a Kd [3] of 330 nM.
